Numbering of substitutions follows the chain as printed. Names and notes keep the numbering of the source.

The values that follow come from article PMC9274004, “Deciphering the Molecular Interaction Between the Adhesion G Protein-Coupled Receptor ADGRV1 and its PDZ-Containing Regulator PDZD7” (Frontiers in Molecular Biosciences, 2022).

Data set [1] can be described thus: Aggregation / sample stability of purified PDZ2 constructs. The format is physicochemical. From the text: The biochemical behavior of PDZD7 PDZ2 drastically differs from PDZ1, with or without its C-terminal extension. […] In order to further establish the accessible folding states of the PDZ2 extension, we used the same metadynamics approach as for PDZ1ext and probed its conformational energy landscape (Figure 3C).

For data set [2], the system named is ADGRV1 β subunit. The data set is described as follows: Pull-down of ADGRV1 β subunit by full-length PDZD7-GFP from HeLa cell lysates. It is filed as binding, murine. The settings on record: PDZD7-GFP bait, anti-GFP beads, 4°C 1 h, western blot, vs no bait. Here is the method:
(§1) HeLa cells were maintained in Dulbecco’s modified Eagle’s medium (DMEM) containing 10% fetal calf serum (FCS). PDZD7 constructs correspond to the full-length murine sequence in fusion with a N-terminal strep tag and a C-terminal GFP, wild-type or carrying G103R/G228R variants, cloned in a PMT3 vector. The ADGRV1 construct corresponds to the murine β subunit of the receptor (5884-6298) cloned in a pRK5 vector. Plasmids were transfected in separate HeLa cultures using 25 μg (PDZD7) and 10 μg (ADGRV1) of DNA per 10 cm dish using TurboFect™ Transfection Reagent (ThermoFisher Scientific) at 3 μl per μg of transfected DNA. Mixes were prepared in volumes of 1 ml/plate (in DMEM), vortexed and incubated up to 30 min at room temperature, cell media were renewed before transfection. After drop by drop addition of the transfection mix, cells were maintained at 37°C for 14 h for protein expression. Cells were dissociated using Gibco™ Trypsine-EDTA (0,05%), subsequently inactivated by addition of DMEM containing 10% FCS. Cells were counted, pelleted and resuspended at similar concentrations in PBS Tween 0.01%, Dodécyl-β-D-maltoside (DDM) 0.1% containing anti-proteases (buffer). Benzonase (Sigma) was added before sonication of the cells (40 mA amplitude, 10 pulses of 12 s with 18 s intervals, in ice). An identical volume of ADGRV1 β transfected cell lysate was mixed to either PDZD7 WT, G103R or G228R transfected cell lysates. PDZ proteins have different expression levels, meaning that different amounts of sample are needed to saturate the dynabeads with the PDZ proteins. Pull down experiments have been performed several times allowing us to estimate the yield of expression of each PDZ construct for a given amount of cells. […] Target proteins were detected using mouse α-GFP (LivingColors™ JL-8, Takara) and rabbit α-ADGRV1 (custom, raised against the cytoplasmic domain) antibodies (1/2000 in 5% milk TBST), as well as secondary α-mouse and α-rabbit IgG antibodies coupled to HRP (1/2000 in 5% milk TBST). […]

A short description of data set [3]: Degradation of PDZD7-GFP variants expressed in HeLa cells. The settings on record: western blot, compared to the wild-type. Here is the method:
as §1, with “Cells were dissociated using Gibco™ Trypsine-EDTA (0,05%), subsequently inactivated by addition of DMEM containing 10% FCS.” left out, “(buffer).” for “(buffer). Benzonase (Sigma) was added before sonication of the cells (40 mA amplitude, 10 pulses of 12 s with 18 s intervals, in ice). An identical volume of ADGRV1 β transfected cell lysate was mixed to either PDZD7 WT, G103R or G228R transfected cell lysates. PDZ proteins have different expression levels, meaning that different amounts of sample are needed to saturate the dynabeads with the PDZ proteins. Pull down experiments have been performed several times allowing us to estimate the yield of expression of each PDZ construct for a given amount of cells.”

B1: PDZ2: second PDZ of mouse PDZD7 (G206 to G292) (protein)
chain: GVRRIVHLYTTSDDFCLGFNIRGGKEFGLGIYVSKVDHGGLAEENGIKVGDQVLAANGVRFDDISHSQAVEVLKGQTHIMLTIKETG
modifications: left off: GST, N-terminal, cleaved
Regarding B1, in data set [1] (15N-labelled PDZ2 constructs, NMR), the sample stability result is “stable for a few hours only”. The aggregation entry in data set [1] (at temperatures higher than 15 °C, despite extensive screening of buffer conditions) is given as “Rapid aggregation”.

B2: PDZ2 G228R: PDZD7 PDZ2 carrying deafness-causing mutation G228R (protein, UniProt E9Q9W7 206-292, looked up, variant G228R)
chain: B1 chain with G23R
As to B2, the aggregation entry in data set [1] (during biophysical experiments, low yield) is listed as “severe aggregation”.

B3: G103R: full-length murine PDZD7-GFP carrying G103R variant (protein, UniProt E9Q9W7 1-1021, looked up, variant G103R)
chain: MARGFTVGFDPLGLGELSSGSLSSVSSRGHLGSDSGSTATRYLLRKQQRLLNGPSRGIRASSPMGRVILINSPIEANSDESDIIHAVRVEKSPSGRLGFSVRRGSEHGLGIFVSKVEEGSSAERAGLCVGDKITEVNGLSLESTTMGSAVRLLTSSSCLHMMVRRMGRVPGIKFSKEKTTWVDVVNRRLVVEKCSSTPSDRSSEDGVRRIVHLYTTSDDFCLGFNIRGGKEFGLGIYVSKVDHGGLAEENGIKVGDQVLAANGVRFDDISHSQAVEVLKGQTHIMLTIKETGRYPAYKEMVSEYCWLDRLSNGVLQQLSPASESSSSVSSYASSAPCSSGSLPSDRMDVCLGPEEPTSHGPGWGRADTAMQTEPDLDSRVETWCSVRPTVILRDTAIRSDGPSSTRHLDSALSESPKTALLLALSRPRTPITRSQSHLTLWEEKKQRKKEKSGSSGEKGALQRSKTLMNLFFKGGRQGRPAGDGHREAWTLDSRSPTKVRPRLDLEKAGSVGPVQKFVTWRLRRDRERGRALLSARSGSPSGQAPTVNEQVQAWESRRPLIQDLARRLLTDDEVLAVTRHCSRYVHEGGVEDLVRPLLAILDRPTKLLLLRDIRSVVAPTDLGRFDSMVMPVELEAFEALKSRAVGPSALRPTRQDTPPKRHLITPVPDSRGGFYLLPVNSSEDEDGEIREKLGVLKVSLGASAPHHKGIPPLQDVPVDAFSLRRGACAPPPQPPPVAPRPPRPNWLLTEPLSREDTQQNQSQTPAQSCSRSRSRSRSRSHSRGQGKSPGRRRSPSPAPIATAATANGRYHRPRKARPLLPRLLDGQVAKVGARQGPLENGRIAEEAVGNVSTGALRTITLSKMKQSLGISISGGIESKVQPMVKIEKIFPGGAAFLCGDLQAGFELVAVDGESLEQVTHQRAVDTIRRAYRNKAREPMELVVRVPGPGLLPLASDLRVVKDQSLAPDCPSALGPVDDARILTQLPPPEARQLQQSLSSALKVPQSIPKLSPILKDPHDPS
modifications: full-length C-terminal GFP fusion
notes: full-length murine PDZD7-GFP carrying G103R variant
For the molecule B3, the “binding of ADGRV1 β subunit (pull-down)” value in data set [2] is on record as “a decrease of ADGRV1 quantity bound to the beads was observed in comparison with wild-type PDZD7, similar to the experiment performed without bait”. For the same molecule, the degradation result in data set [3] is on record as “higher tendency for degradation”.

B4: G228R: full-length murine PDZD7-GFP carrying G228R variant (protein, UniProt E9Q9W7 1-1021, looked up, variant G228R)
chain: B3 chain with R103G, G228R
modifications: full-length C-terminal GFP fusion
notes: full-length murine PDZD7-GFP carrying G228R variant
Take B4: in data set [2], the “binding of ADGRV1 β subunit (pull-down)” value is “a decrease of ADGRV1 quantity bound to the beads was observed in comparison with wild-type PDZD7, similar to the experiment performed without bait”. Further, in data set [3], the degradation result is reported as “higher tendency for degradation”.
